Test results reported in article PMC11779899 (Nature Communications, 2025).

Tests used:
[1] = molecular target: Full-length WT-IrtAB heterodimer reconstituted in nanodiscs (Mycolicibacterium thermoresistibile …, UniProt G7CBF5;G7CBF6); experiment: cryo-EM structure
[2] = molecular target: T1, WT-IrtABΔSID heterodimer in LMNG (Mycolicibacterium thermoresistibile …, point mutant); experiment: cryo-EM structure
T1 chain 1: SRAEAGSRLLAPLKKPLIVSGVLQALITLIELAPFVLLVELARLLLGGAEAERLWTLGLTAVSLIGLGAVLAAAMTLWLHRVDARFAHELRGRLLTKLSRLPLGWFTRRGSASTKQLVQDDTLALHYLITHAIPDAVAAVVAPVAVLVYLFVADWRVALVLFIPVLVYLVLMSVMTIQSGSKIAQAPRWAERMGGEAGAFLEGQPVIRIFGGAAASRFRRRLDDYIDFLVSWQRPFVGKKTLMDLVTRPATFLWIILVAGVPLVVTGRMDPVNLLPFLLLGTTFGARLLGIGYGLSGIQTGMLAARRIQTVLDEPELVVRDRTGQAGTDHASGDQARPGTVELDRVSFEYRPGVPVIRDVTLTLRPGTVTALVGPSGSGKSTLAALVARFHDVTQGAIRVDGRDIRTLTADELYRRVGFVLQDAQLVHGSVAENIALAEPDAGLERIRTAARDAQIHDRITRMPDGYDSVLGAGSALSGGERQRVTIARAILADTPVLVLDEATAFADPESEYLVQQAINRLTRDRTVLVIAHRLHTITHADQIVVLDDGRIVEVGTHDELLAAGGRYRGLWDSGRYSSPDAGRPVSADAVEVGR
T1 chain 2: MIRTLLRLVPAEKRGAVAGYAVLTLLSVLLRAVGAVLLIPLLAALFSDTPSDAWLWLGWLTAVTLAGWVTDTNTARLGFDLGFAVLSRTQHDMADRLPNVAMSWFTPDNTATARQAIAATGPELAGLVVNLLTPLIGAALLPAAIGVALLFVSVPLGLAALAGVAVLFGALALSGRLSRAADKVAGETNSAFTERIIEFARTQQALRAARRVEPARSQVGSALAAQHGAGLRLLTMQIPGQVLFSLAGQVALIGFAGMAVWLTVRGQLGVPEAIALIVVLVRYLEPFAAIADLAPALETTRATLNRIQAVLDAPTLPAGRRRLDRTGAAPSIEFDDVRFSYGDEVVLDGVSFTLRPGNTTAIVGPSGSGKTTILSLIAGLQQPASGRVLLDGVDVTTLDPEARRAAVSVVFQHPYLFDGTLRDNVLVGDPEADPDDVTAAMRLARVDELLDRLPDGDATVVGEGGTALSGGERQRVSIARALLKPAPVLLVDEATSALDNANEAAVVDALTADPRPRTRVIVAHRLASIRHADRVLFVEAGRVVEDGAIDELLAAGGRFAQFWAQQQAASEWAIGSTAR

B1: IrtAB-specific sybody SybNL5 (VHH)
VHH: QVQLVESGGGLVQAGGSLRLSCAASGFPVSSSTMTWYRQAPGKEREWVAAINSYGYYTVYADSVKGRFTISRDNAKNTVYLQMNSLKPEDTAVYYCNVKDTGQMRESYDYWGQGTQVTVSA
binding result [1]: binds
binding result [2]: binds
